Data from US20240218374.

Target: Spike S1 & S2 ECD (SARS-CoV-2) (UniProt P0DTC2)
Assay: filter
[1] = Y=Tyr-dU, p=Nap-dC, SB18T0.01, 37 C

GGGACANNANGNGNNNGANNGNNNGGANG [26874-29_127]
Kd (c3 (not defined) at 5, other dU Tyr-dU, dC Nap-dC, SB18T0.01, 37 C): 0.28 nM

GGGANANNANGNGNNNGANNGNNNGGANG [26874-29_63]
Kd (BndU at 14, other dU Tyr-dU, dC Nap-dC, SB18T0.01, 37 C): 0.16 nM

GGGANANNANGNGNNNGANNGNNNGGANG [26874-29_151]
Kd (BPEdU at 10, other dU Tyr-dU, dC Nap-dC, SB18T0.01, 37 C): 0.78 nM

GGGANANNANGNGNNNGANNGNNNGGANG [26874-29_152]
Kd (MBndU at 14, other dU Tyr-dU, dC Nap-dC, SB18T0.01, 37 C): 0.33 nM

GGGANANNANGNGNNNGANNGNNNGGANG [26874-29_155]
Kd (BPEdU at 23, other dU Tyr-dU, dC Nap-dC, SB18T0.01, 37 C): 0.17 nM

GGGANANNANGNGNNNGANNGNNNGGANG [26874-29_68]
Kd (PBndU at 8, other dU Tyr-dU, dC Nap-dC, SB18T0.01, 37 C): 0.21 nM

GGGANANNANGNGNNNGANNGNNNGGANG [26874-29_86]
Kd (BFdU at 5, other dU Tyr-dU, dC Nap-dC, SB18T0.01, 37 C): 0.21 nM

GGGANANNANGNGNNNGANNGNNNGGANG [26874-29_103]
Kd (ThrdU at 14, other dU Tyr-dU, dC Nap-dC, SB18T0.01, 37 C): 0.49 nM

NANNANGNGNNNGANNGNNNGGANGG [26874-29_22]
Kd [1]: 1.4 nM

GNGNAANGNANNNNANNNGGNNNGAANGNG [26876-13_15]
Kd [1]: 0.26 nM

GGGANANNANGNGNNNGANNGNNNGGANG [26874-29_148]
Kd (MBndU at 8, other dU Tyr-dU, dC Nap-dC, low plateau): 0.46 nM

GGGANANNANGNGNNNGANNGNNNGGANG [26874-29_65]
Kd (BndU at 23, other dU Tyr-dU, dC Nap-dC, SB18T0.01, 37 C): 0.28 nM

GGGANANNANGNGNNNGANNGNNNGGANG [26874-29_109]
Kd (2NapdU at 8, other dU Tyr-dU, dC Nap-dC, SB18T0.01, 37 C): 0.48 nM

GGGANANNANGNGNNNGANNGNNNGGANG [26874-29_136]
Kd (iBudU at 5, other dU Tyr-dU, dC Nap-dC, SB18T0.01, 37 C): 0.57 nM

GGGANANNANGNGNNNGANNGNNNGGANG [26874-29_94]
Kd (BFdU at 23, other dU Tyr-dU, dC Nap-dC, SB18T0.01, 37 C): 0.48 nM

GGGANANNANGNGNNNGANNGNNNGGANG [OH-26874-29_182]
Kd (2Nap-dC at 12, other dC Nap-dC, dU Tyr-dU): 0.41 nM

GGGANANNANGNGNNNGANNGNNNGGANG [26874-29_93]
Kd (PPdU at 14, other dU Tyr-dU, dC Nap-dC, SB18T0.01, 37 C): 0.24 nM

GGGANANNANGNGNNNGANNGNNNGGANG [26874-29_132]
Kd (2NEdU at 14, other dU Tyr-dU, dC Nap-dC, SB18T0.01, 37 C): 0.27 nM

GGGANANNANGNGNNNGANNGNNNGGANG [26874-29_82]
Kd (NEdU at 14, other dU Tyr-dU, dC Nap-dC, SB18T0.01, 37 C): 0.18 nM

GGGANANNANGNGNNNGANNGNNNGGANG [OH-26874-29_330]
Kd (Y=Tyr-dU, p=Nap-dC, position 24 DPP-dC, protein construct inferred): 0.11 nM

GGGANANNANGNGNNNGANNGNNNGGANG [26874-29_77]
Kd (Y=Tyr-dU, p=Nap-dC, position 5 PE-dU, Kd/Kd_20 0.32): 0.13 nM

GGGANANNANGNGNNNGANNGNNNGGANG [26874-29_120]
Kd (BTdU at 10, other dU Tyr-dU, dC Nap-dC, SB18T0.01, 37 C): 0.24 nM

GGGANANNANGNGNNNGANNGNNNGGANG [OH-26874-29_333]
Kd (Y=Tyr-dU, p=Nap-dC, position 12 DCPE-dC, protein construct inferred): 0.11 nM

GGGANANNANGNGNNNGANNGNNNGGANG [26874-29_118]
Kd (BTdU at 8, other dU Tyr-dU, dC Nap-dC, SB18T0.01, 37 C): 0.39 nM

GGGANANNANGNGNNNGANNGNNNGGANG [26874-29_64]
Kd (TrpdU at 23, other dU Tyr-dU, dC Nap-dC, SB18T0.01, 37 C): 0.27 nM

GGGANANNANGNGNNNGANNGNNNGGANG [26874-29_110]
Kd (MOEdU at 10, other dU Tyr-dU, dC Nap-dC, SB18T0.01, 37 C): 0.43 nM

GGGANANNANGNGNNNGANNGNNNGGANG [26874-29_149]
Kd (BPEdU at 8, other dU Tyr-dU, dC Nap-dC, low plateau): 0.47 nM

GGGANANNANGNGNNNGANNGNNNGGANG [26874-29_125]
Kd (POPdU at 23, other dU Tyr-dU, dC Nap-dC, low plateau): 0.37 nM

GGGANANNANGNGNNNGANNGNNNGGANG [26874-29_138]
Kd (iBudU at 8, other dU Tyr-dU, dC Nap-dC, SB18T0.01, 37 C): 0.59 nM

GGGANANNANGNGNNNGANNGNNNGGANG [26874-29_47]
Kd (NapdU at 5, other dU Tyr-dU, dC Nap-dC, SB18T0.01, 37 C): 0.31 nM

GGGANANNANGNGNNNGANNGNNNGGANG [26874-29_154]
Kd (MBndU at 23, other dU Tyr-dU, dC Nap-dC, SB18T0.01, 37 C): 0.43 nM

GGGANANNANGNGNNNGANNGNNNGGANG [26874-29_62]
Kd (Y=Tyr-dU, p=Nap-dC, position 14 Trp-dU, Kd/Kd_20 0.30): 0.13 nM

GGGANANNANGNGNNNGANNGNNNGGANG [26874-29_74]
Kd (PBndU at 23, other dU Tyr-dU, dC Nap-dC, low plateau, very faint spots): 0.46 nM

GGGANANNANGNGNNNGANNGNNNGGANG [OH-26874-29_315]
Kd (Y=Tyr-dU, p=Nap-dC, position 12 PBn-dC, protein construct inferred): 0.16 nM

GGGANANNANGNGNNNGANNGNNNGGANG [26874-29_140]
Kd (iBudU at 10, other dU Tyr-dU, dC Nap-dC, SB18T0.01, 37 C): 0.47 nM

GGGANANNANGNGNNNGANNGNNNGGANG [26874-29_150]
Kd (Y=Tyr-dU, p=Nap-dC, position 10 MBn-dU, Kd/Kd_20 38): 16 nM

GGGANANNANGNGNNNGANNGNNNGGANG [26874-29_116]
Kd (BTdU at 5, other dU Tyr-dU, dC Nap-dC, low plateau): 0.53 nM

GGGANANNANGNGNNNGANNGNNNGGANG [26874-29_128]
Kd (Y=Tyr-dU, p=Nap-dC, position 8 2NE-dU, value curated as assigned, Kd/Kd_20 1656): 500 nM

GGGANANNANGNGNNNGANNGNNNGGANG [26874-29_130]
Kd (2NEdU at 10, other dU Tyr-dU, dC Nap-dC, SB18T0.01, 37 C): 0.28 nM

GGGANANNANGNGHNNGANNGNNNGGANG [26874-29_100]
Kd (ThdU at 14 as printed (same as _102; position 10 probably meant), other dU Tyr-dU, dC Nap-dC, SB18T0.01, 37 C): 0.49 nM

GGGANANNANGNGNNNGANNGNNNGGANG [26874-29_142]
Kd (iBudU at 14, other dU Tyr-dU, dC Nap-dC, SB18T0.01, 37 C): 0.37 nM

GGGAHANNANGNGNNNGANNGNNNGGANG [26874-29_96]
Kd (ThdU at 5, other dU Tyr-dU, dC Nap-dC, SB18T0.01, 37 C): 0.27 nM

GGGANANNANGNGNNNGANNGNNNGGANG [26874-29_85]
Kd (PEdU at 23, other dU Tyr-dU, dC Nap-dC, low plateau): 0.29 nM

GGGANANNANGNGNNNGANNGNNNGGANG [26874-29_146]
Kd (MBndU at 5, other dU Tyr-dU, dC Nap-dC, low plateau): 0.61 nM

GGGANANNANGNGNNNGANNGNNNGGANG [26874-29_126]
Kd (2NEdU at 5, other dU Tyr-dU, dC Nap-dC, low plateau): 0.65 nM

GGGANANNANGNGNNNGANNGNNNGGANG [26874-29_144]
Kd (iBudU at 23, other dU Tyr-dU, dC Nap-dC, SB18T0.01, 37 C): 0.57 nM

GGGANANNANGNGNNNGANNGNNNGGANG [26874-29_97]
Kd (ThrdU at 5, other dU Tyr-dU, dC Nap-dC, SB18T0.01, 37 C): 0.29 nM

GGANANNANGNGNNNGANNGNNNGGANG [26874-29_21]
Kd [1]: 2.2 nM

GGGANANNANGNGNNNGANNGNNNGGANG [26874-29_91]
Kd (BFdU at 14 (Table 6B says PPdU), other dU Tyr-dU, dC Nap-dC, SB18T0.01, 37 C): 0.17 nM

GGGANANNANGNGNNNGANNGNNNGGANG [26874-29_51]
Kd (NapdU at 10, other dU Tyr-dU, dC Nap-dC, SB18T0.01, 37 C): 0.36 nM

GGGANANNANGNGNNNGANNGNNNGGANG [26874-29_84]
Kd (NEdU at 23, other dU Tyr-dU, dC Nap-dC, SB18T0.01, 37 C): 0.44 nM

ANNANGNGNNNGANNGNNNGGANG [26874-29_25]
Kd [1]: 1.8 nM

GGGANANNANGNGNNNGANNGNNNGGANG [26874-29_107]
Kd (2NapdU at 5, other dU Tyr-dU, dC Nap-dC, SB18T0.01, 37 C): 0.49 nM

GGGANANNANGNGNNNGANNGNNNGGANG [26874-29_153]
Kd (Y=Tyr-dU, p=Nap-dC, position 14 BPE-dU, Kd/Kd_20 0.28): 0.11 nM

GGGANANNANGNGNNNGANNGNNNGGANG [26874-29_108]
Kd (MOEdU at 8, other dU Tyr-dU, dC Nap-dC, SB18T0.01, 37 C): 0.72 nM

GGGANANNANGNGNNNGANNGNNNGGANG [OH-26874-29_332]
Kd (Y=Tyr-dU, p=Nap-dC, position 7 DCPE-dC, protein construct inferred): 0.13 nM

GGGANANNANGNGNNNGANNGNNNGGANG [26874-29_105]
Kd (ThrdU at 23, other dU Tyr-dU, dC Nap-dC, SB18T0.01, 37 C): 0.79 nM

GGGANANNANGNGNNNGANNGNNNGGANG [26874-29_115]
Kd (2NapdU at 23, other dU Tyr-dU, dC Nap-dC, SB18T0.01, 37 C): 0.46 nM

GGGANANNANGNGHNNGANNGNNNGGANG [26874-29_102]
Kd (ThdU at 14, other dU Tyr-dU, dC Nap-dC, SB18T0.01, 37 C): 0.45 nM

GGGANANNANGNGNNNGANNGNNNGGANG [26874-29_92]
Kd (PPdU at 10 (Table 6B says BFdU), other dU Tyr-dU, dC Nap-dC, SB18T0.01, 37 C): 0.18 nM
